Assay results taken from FireProtDB (doi:10.1111/j.1432-1033.1988.tb14214.x).

B1: Protein S100-G, P02633 (parent)
chain: MSAKKSPEELKGIFEKYAAKEGDPNQLSKEELKLLLQTEFPSLLKGPSTLDELFEELDKNGDGEVSFEEFQVLVKKISQ

Variants of: B1
Conditions: Bos taurus; pH 7.1; 25 °C; Urea; CD; PIPES 20 mM; reversible: yes; structure 1IGV; whole UniProt chain shown

Variant	ddG of mutation (higher = less stable) [kcal/mol]	denaturant m value [kcal/mol/M]	denaturant midpoint (higher = more stable) [M]	unfolding free energy [kcal/mol]
Y17F	1.19	0.89	4.1	3.59
P24G	1.19	0.79	4.7	3.59
E21Q	-0.48	0.91	5.6	5.26
